The values that follow are results of earlier work, collected in patent US20200181212A1 (priority 2014, published 2020).

For this data set, the system named is trypsin. Particulars: cited from earlier work.

As a reminder, the residual activity is the share of the control activity or signal that is left under treatment. Take asparaginase [native asparaginase]: the residual activity is on record as 5%.
